Results: doi:10.1101/2024.02.29.582781 (bioRxiv, 2024)

Molecular target: the molecule itself
Assay: SEC

Protein	stoichiometry N
glycerol kinase Saci_1117 (enzyme, Sulfolobus acidocaldarius DSM 639, UniProt Q4J9R1 1-498, looked up) MSKYILAVDEGTTSARALVFDEDLNVISIAQTELTQYFPRPGYVEQNPEEIFEKQVSMIKKAVEKAKIEISQVSAIGIANQRETTIMWDSRSGRPVYNAVVWQDRRTSDITDWLKSNYLNLFKSKTGLIPDPYFSASKIKWILDNVPGVREKAERGEIKFGTVDTYLIWKLTNGKVHVTDYSNASRTMLFNIKKLEWDRDILEILEIPEAILPEVRSSSEVYGYAEPVGNIPISGDAGDQQAALFGQLGFSKGDVKCTYGTGSFILMNSGEEIYDSKDLLTTIAWKIGKDVKYALEGSIFTTGAAVQWVRDGLGLVSSSDEIESLASSVVDNGGVYFVPAFSGLGSPYWDPYARGLIIGISRGTSRGHIARAVLESIAYQVRDVIEVIKKDVGKEFVNVLKVDGGVSKNNLLMQFQADILGIRIVRPRVIETTSMGASMLAGLAVDYWSSLEELKSKWAVDREFIPSLQEDRRERLYKGWKEAVRRTIGWAREVETME	2
glycerol kinase Saci_2033 (enzyme, Sulfolobus acidocaldarius DSM 639, UniProt Q4J7A3 1-497, looked up) MAEKYVIAIDEGTTSARAIVFDKELNILGIGQNEFTQYYPQPGYVEHSPEEIWQAQLLAINKALEKAKIDRNNILSIGITNQRETTVMWDTRTGKPIYNAIVWQDRRTAPITDYLKANYLRLIKDRTGLVPDPYFSASKIKWILDNIPNAREKAEKGEIKFGTIDTYLIWKLTNGKAHVTDYSNASRTMLFNIRKLEWDREILEILNIPEAILPDVKPSSEIYGYAEILNSSIPISGDAGDQQAALFGQIAFNQGDVKCTYGTGSFILLNTGSNLVSSNDLLTTIAWGVGKGITYALEGSIFITGAAVQWFRDGLRAIDVSDEIEPLAGSVPDNGGVYFVPAFTGLGAPYWDPYARGLIIGITRGTTKAHIARAILESMAYQTMDVLGIMQRDSGIKIDALKVDGGASKNDLLMQFQADILKMKVVRPKIMETTSMGVAMLAGLSVGYWNSMDELKQKWKIDQVFEPKMDDEYREKLYSGWKEAVRRALGWAKTIGG	2
glycerol-3-phosphate dehydrogenase Saci_2032, N-terminally His-tagged (enzyme, Sulfolobus acidocaldarius DSM 639, UniProt Q4J7A2 1-431, looked up) MEIKTSVLVIGGGANGLFTALDLALRGIDVTLVERRDIGSGTSGRFHGLLHSGARYAVTDPESAKECIQENNIISKIAPHAIRDTGGLFLGITKEDLEFLDKFLSSLKKLGIEHKIVDNNQVLQEEPYVNKDLKIAIWVPDKVVYGYDLLSSIAVTGSLNKARIMTYNEVTEFIRDGNSIKGVKVFDKITNQMNLIKSDIIINTSGPWAFKIITMAGLEEIPILPTAGIMAVFGKKVNNAVLNRLRPPSDGDIIVPYQDTSILGTTATIIEDPDNFTISDEDVKMLIKEGSQLVPELSKTRVIRTYASVRPLMRTSEDGRKASRDFTILDHEREDGVSGLISIIGGKFTTSRLVGEKVGDLVSEKLGVRAKSKTKETKLISPSEIDFEKYLEKIGISKIFLKSVMERRGSLDEERYKTVLYLLLSLIARGR	2
glycerol-3-phosphate dehydrogenase Saci_1118, N-terminally His-tagged (enzyme, Sulfolobus acidocaldarius DSM 639, UniProt Q4J9Q8 1-428, looked up) MKQNSSVIVIGGGATGLFTALDLSLRGINVTLVERGDIASGTSGKFHGLLHSGARYAVNDPESAKECKQENEVLSKIAPEFVRDTGGVFVGITEDDVNYSQRFLSALNSLGITNKVMDVEELIRREPFINKKSKIAIWVPDKVVYGYDLLATVALTASLNGAKILTYNEVKRVLREGNSVRRVEVKDNISGETKILNGDIIVNTAGPWAFRVIEMAGLGEIPLLPTAGIMVVMKEKLNSMVINRLRPPSDGDIIVPYGDSSIIGTTATIIPDPDNFEISDEDINMLIEEGAYMIPRLKEVKPERAYASVRPLIKNAEDGRGATRDFMIIDHEKVDSLDGLISVIGGKFTTSRLAGEKVSDMVSEKLGIREKSKTATIKLMSELDEKLLEKKRVPKVLVKMIRERKGSLDEDRYSTAMYILLSLLARGE	2
